In test [1] the target is T1, Recombinant human VEGF165 (Peprotech, Cat #100-20) (human, UniProt P15692-4 27-191).
T1 construct: Bought protein; also called rhVEGF165; rh VEGF165
Briefly: ELISA on rhVEGF165; biotinylated anti-VpreB antibody and streptavidin-HRP detection. On the technique in general: In an ELISA, binding on a coated surface is turned into a signal by an enzyme label.

Test [2] addresses T2, Recombinant human ANG-2 (R&D Systems, Cat #623-AN-025/CF) (human, UniProt O15123 19-496, limits assumed).
T2 construct: also called rhANG-2
T2 sequence (looked up): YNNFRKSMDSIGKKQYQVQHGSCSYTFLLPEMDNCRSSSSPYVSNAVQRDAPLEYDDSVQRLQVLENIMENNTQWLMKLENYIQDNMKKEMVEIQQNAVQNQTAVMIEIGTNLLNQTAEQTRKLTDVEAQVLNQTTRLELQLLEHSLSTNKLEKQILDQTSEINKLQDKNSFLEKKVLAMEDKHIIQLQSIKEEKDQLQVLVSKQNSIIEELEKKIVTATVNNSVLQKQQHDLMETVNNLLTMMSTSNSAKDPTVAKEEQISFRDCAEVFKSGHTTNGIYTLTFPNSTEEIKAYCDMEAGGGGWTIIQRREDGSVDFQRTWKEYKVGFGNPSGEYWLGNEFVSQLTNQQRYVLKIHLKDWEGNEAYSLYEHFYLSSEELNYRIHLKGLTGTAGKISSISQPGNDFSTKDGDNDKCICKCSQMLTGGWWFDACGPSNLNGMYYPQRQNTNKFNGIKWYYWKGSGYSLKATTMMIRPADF
Briefly: ELISA on rhANG-2 by an independent team; ratio of average EC50 against Faricimab.

Test [3] has as its target T3, His-tagged recombinant human ANG-2 (AcroBiosystems, Cat #AN2-H52H4) (human, UniProt O15123 275-496).
T3 construct: also called rhANG-2; rhANG-2-His; not shown: His tag
T3 sequence (looked up): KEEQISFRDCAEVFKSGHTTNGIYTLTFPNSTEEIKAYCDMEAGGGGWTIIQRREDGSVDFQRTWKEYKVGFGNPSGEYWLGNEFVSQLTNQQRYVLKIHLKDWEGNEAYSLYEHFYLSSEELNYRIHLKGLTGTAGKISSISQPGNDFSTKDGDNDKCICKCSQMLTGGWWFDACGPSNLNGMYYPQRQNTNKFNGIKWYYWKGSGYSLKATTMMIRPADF
The test can be described thus: ELISA; rhANG-2 (AcroBiosystems) coated, anti-human IgG Fc-HRP detection. Here is the method: Donkey anti-human IgG Fcγ-HRP (Jackson ImmunoResearch Laboratories, Cat #709-035-098) was used for detection and visualized by TMB substrate. OD450 nm readings were measured by Victor 3 with PerkinElmer 1420 Multilabel Counter.

Test [4] has as its target T4, Recombinant human VEGF121 (Peprotech, Cat #100-20A) (human, UniProt P15692-9 27-147).
T4 construct: Bought protein; also called rhVEGF121; rh VEGF121
T4 sequence (looked up): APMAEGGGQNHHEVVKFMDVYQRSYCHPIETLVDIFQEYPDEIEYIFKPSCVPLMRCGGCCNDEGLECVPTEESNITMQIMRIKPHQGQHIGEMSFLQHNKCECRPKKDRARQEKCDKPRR
The test can be described thus: ELISA; rhVEGF121 coated, anti-human IgG Fc-HRP detection. Here is the method: Donkey anti-human IgG Fcγ-HRP was used for detection (Jackson ImmunoResearch Laboratories, Cat #709-035-098) and visualized by TMB substrate. OD450 nm readings were measured by Victor 3 (PerkinElmer 1420 Multilabel Counter).

In test [5] the target is T5, rhVEGF-D (AcroBio_VED-H5228) (human, UniProt O43915 89-205, limits assumed).
T5 construct: domain: PDGF domain; Bought protein; not shown: His tag
T5 sequence (looked up): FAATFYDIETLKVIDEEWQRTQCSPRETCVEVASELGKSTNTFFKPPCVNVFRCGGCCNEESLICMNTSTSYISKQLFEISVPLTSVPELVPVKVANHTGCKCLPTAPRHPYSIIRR
Briefly: ELISA: rhVEGF-D_AcroBio coated at 1 ug/mL, RO-101_Sample 1 titrated, detected with anti-human IgG Fc-gamma-HRP. Here is the method: (§1) Different target proteins were used to coat Corning 9017 medium binding plates at 1 μg/mL and 100 μl per well. Donkey anti-human IgG Fcγ-HRP was used for detection. OD450 nm readings were measured by Victor 3.

The target in test [6] is T6, rrANG-2 (rabbit; Speed Biosystems_YCP8015) (Rabbit, UniProt G1T9B3 19-496).
T6 construct: Bought protein; also called Rabbit ANG-2
T6 sequence: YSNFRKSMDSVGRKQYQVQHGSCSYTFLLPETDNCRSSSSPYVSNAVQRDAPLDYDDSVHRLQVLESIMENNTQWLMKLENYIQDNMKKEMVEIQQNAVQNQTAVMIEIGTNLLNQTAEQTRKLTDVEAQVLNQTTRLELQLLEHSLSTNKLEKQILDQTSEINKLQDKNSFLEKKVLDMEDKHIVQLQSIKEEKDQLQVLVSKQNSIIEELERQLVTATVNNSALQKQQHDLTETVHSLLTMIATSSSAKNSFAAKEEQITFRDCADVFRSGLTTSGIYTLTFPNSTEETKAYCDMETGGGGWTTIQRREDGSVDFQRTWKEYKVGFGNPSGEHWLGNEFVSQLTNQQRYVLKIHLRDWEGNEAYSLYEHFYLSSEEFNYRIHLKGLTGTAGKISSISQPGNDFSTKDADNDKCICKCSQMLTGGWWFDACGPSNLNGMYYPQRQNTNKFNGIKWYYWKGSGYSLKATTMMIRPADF
Briefly: ELISA on coated rabbit ANG-2.

Test [7] deals with T7, rpVEGF164 (porcine/pig; AssayGenie_KPRT0149) (Porcine/Pig, UniProt P49151 27-190).
T7 construct: Bought protein; also called Pig VEGF-A
T7 sequence (looked up): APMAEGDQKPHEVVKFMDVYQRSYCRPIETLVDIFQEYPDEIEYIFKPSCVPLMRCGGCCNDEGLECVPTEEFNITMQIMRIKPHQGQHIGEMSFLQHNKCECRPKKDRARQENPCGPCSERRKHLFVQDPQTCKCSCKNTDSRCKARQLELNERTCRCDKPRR
Briefly: ELISA on coated pig VEGF-A.

The target of test [8] is T8, rhVEGF-C (AcroBio_VEC-H4225) (human, UniProt P49767 103-227, limits assumed).
T8 construct: domain: PDGF domain; Bought protein; not shown: His tag
T8 sequence (looked up): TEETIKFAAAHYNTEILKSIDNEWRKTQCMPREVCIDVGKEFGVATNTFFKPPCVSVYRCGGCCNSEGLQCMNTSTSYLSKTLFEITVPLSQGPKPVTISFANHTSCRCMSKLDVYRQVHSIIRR
The test can be described thus: ELISA: rhVEGF-C_AcroBio coated at 1 ug/mL, RO-101_Sample 1 titrated, detected with anti-human IgG Fc-gamma-HRP. The protocol: as §1

In general, EC50 refers to the concentration giving half of the maximal effect.

Several values for one entry are separate records, joined by “and”; a condition that tells them apart may be missing. Equal entries are not always repeated.

B1: RO-101 VEGF/ANG-2 bispecific surrobody (bispecific antibody, human IgG1, L234A L235A)
heavy 1: not shown
heavy 2: EVQLVESGGGLVKPGGSLRLSCAASGFTFSSYGMHWVRQAPGKGLEWVAGISADSGDKNYADSVKGRFTISRDNAKNSLYLQMNSLRAEDTAVYYCAKEFISWIYTFDYLDYWGQGTLVTVSSASTKGPSVFPLAPSSKSTSGGTAALGCLVKDYFPEPVTVSWNSGALTSGVHTFPAVLQSSGLYSLSSVVTVPSSSLGTQTYICNVNHKPSNTKVDKKVEPKSCDKTHTCPPCPAPEAAGGPSVFLFPPKPKDTLMISRTPEVTCVVVDVSHEDPEVKFNWYVDGVEVHNAKTKPREEQYNSTYRVVSVLTVLHQDWLNGKEYKCKVSNKALPAPIEKTISKAKGQPREPQVCTLPPSRDELTKNQVSLSCAVKGFYPSDIAVEWESNGQPENNYKTTPPVLDSDGSFFLVSKLTVDKSRWQQGNVFSCSVMHEALHNHYTQKSLSLSPG
light: QPVLHQPPAMSSALGTTIRLTCTLRNDHDIGVYSVYWYQQRPGHPPRFLLRYFSQSDKSQGPQVPPRFSGSKDVARNRGYLSISELQPEDEAMYYCAMGARSSVTHVFGSGTQLTVLSQPKATPSVTLFPPSSEELQANKATLVCLMNDFYPGILTVTWKADGTPITQGVEMTTPSKQSNNKYAASSYLSLTPEQWRSRRSYSCQVMHEGSTVEKTVAPAECS
notes: Format SgG1; also called Sample 1
With B1, the EC50 was 0.0057 nM in test [1]; 0.0118 nM and 0.0138 nM in test [3]; 0.0086 nM in test [4]; 0.011 nM in test [6]; 0.0198 nM in test [7]. In addition, the “fold better than Faricimab” value in test [2] was determined as 58 fold. Besides, the binding result in test [5] and in test [8] was “no binding (tested: 100 nM (Log(nM) 2))” in each case.
